Article PMC10786891, “Massively parallel profiling of RNA-targeting CRISPR-Cas13d”
Substitutions are numbered along the chain they refer to. Numbers in names are those of the source.

T1: EsCas13d, nuclease-dead (Eubacterium siraeum, UniProt B0MS50, R295A;H300A;R849A;H854A)
T1 sequence: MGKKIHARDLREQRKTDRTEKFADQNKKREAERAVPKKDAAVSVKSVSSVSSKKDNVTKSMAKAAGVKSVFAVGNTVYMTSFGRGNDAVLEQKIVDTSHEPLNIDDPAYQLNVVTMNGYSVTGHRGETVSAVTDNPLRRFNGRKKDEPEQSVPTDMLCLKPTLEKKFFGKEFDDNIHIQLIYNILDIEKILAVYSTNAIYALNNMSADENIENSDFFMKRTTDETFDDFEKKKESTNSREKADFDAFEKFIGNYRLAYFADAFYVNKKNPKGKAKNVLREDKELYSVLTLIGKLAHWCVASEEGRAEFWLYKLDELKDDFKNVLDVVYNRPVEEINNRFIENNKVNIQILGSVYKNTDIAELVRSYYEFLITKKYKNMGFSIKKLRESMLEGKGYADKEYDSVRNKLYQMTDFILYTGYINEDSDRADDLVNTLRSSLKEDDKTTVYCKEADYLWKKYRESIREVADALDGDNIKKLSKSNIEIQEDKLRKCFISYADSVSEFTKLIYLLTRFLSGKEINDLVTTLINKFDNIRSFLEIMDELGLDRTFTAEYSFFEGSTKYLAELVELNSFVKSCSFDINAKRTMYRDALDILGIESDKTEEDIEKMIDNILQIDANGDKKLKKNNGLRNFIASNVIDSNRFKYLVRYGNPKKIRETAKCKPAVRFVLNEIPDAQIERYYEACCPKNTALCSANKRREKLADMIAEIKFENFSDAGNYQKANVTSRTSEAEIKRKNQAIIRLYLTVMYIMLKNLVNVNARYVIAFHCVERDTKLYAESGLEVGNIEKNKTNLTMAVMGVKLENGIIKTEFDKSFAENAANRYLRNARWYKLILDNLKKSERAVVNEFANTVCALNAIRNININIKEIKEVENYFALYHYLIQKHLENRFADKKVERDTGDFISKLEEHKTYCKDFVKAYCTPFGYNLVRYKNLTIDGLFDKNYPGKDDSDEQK

B1: target 1 A9C,A16C (mixed)
RNA 1: CACCCGUGCAAAAAUGCAGGGGUCUAAAACUGAGCGGAUAACCUCUCUAUGG
RNA 2: GGGAAUGGAUCCACAUCUACGAAUUCGUACCAUAGCGAGGUUCUCCGCUCACCGAGAUCGGAAGAGCACACGU
B2: target 1 insU 3' of 12,insU 3' of 12 (mixed)
RNA 1: B1 RNA 1
RNA 2: GGGAAUGGAUCCACAUCUACGAAUUCGUACCAUAGAGAGGUUUUAUCCGCUCACCGAGAUCGGAAGAGCACACGU
B3: target 1 G5A,A20C (mixed)
RNA 1: B1 RNA 1
RNA 2: B1 RNA 2 with A32C, C36A, C43A, G47A
B4: target 2 MT 5'PFS AGA 3'PFS AAG (mixed)
RNA 1: CACCCGUGCAAAAUUGCAGGGGUCUAAAACCUUCUCCAAAUUGUUUCAUCCU
RNA 2: GGGAAUGGAUCCACAUCUACGAAUUCAGAAGGAUGAAACAAUUUGGAGAAGAAGAGAUCGGAAGAGCACACGU
B5: target 2 MT 5'PFS GUC 3'PFS CAU (mixed)
RNA 1: B4 RNA 1
RNA 2: B4 RNA 2 with A27G, G28U, A29C, A52C, G54U
B6: target 2 MT 5'PFS UUG 3'PFS CGC (mixed)
RNA 1: B4 RNA 1
RNA 2: B4 RNA 2 with A27U, G28U, A29G, A52C, A53G, G54C
B7: target 2 MT 5'PFS GUA 3'PFS CAG (mixed)
RNA 1: B4 RNA 1
RNA 2: B4 RNA 2 with A27G, G28U, A52C
B8: target 2 MT 5'PFS UUC 3'PFS ACC (mixed)
RNA 1: B4 RNA 1
RNA 2: B4 RNA 2 with A27U, G28U, A29C, A53C, G54C
B9: target 2 MT 5'PFS CAU 3'PFS AGC (mixed)
RNA 1: B4 RNA 1
RNA 2: B4 RNA 2 with A27C, G28A, A29U, A53G, G54C
B10: target 2 MT 5'PFS CUU 3'PFS ACU (mixed)
RNA 1: B4 RNA 1
RNA 2: B4 RNA 2 with A27C, G28U, A29U, A53C, G54U
B11: target 2 MT 5'PFS UGU 3'PFS CAG (mixed)
RNA 1: B4 RNA 1
RNA 2: B4 RNA 2 with A27U, A29U, A52C
B12: target 2 MT 5'PFS CUU 3'PFS ACA (mixed)
RNA 1: B4 RNA 1
RNA 2: B4 RNA 2 with A27C, G28U, A29U, A53C, G54A
B13: target 2 MT 5'PFS AGC 3'PFS CGA (mixed)
RNA 1: B4 RNA 1
RNA 2: B4 RNA 2 with A29C, A52C, A53G, G54A
B14: target 2 MT 5'PFS ACC 3'PFS UCC (mixed)
RNA 1: B4 RNA 1
RNA 2: B4 RNA 2 with G28C, A29C, A52U, A53C, G54C
B15: target 2 MT 5'PFS AGA 3'PFS AAC (mixed)
RNA 1: B4 RNA 1
RNA 2: B4 RNA 2 with G54C
B16: target 2 MT 5'PFS AGC 3'PFS CGC (mixed)
RNA 1: B4 RNA 1
RNA 2: B4 RNA 2 with A29C, A52C, A53G, G54C
B17: target 2 MT 5'PFS UAU 3'PFS UGA (mixed)
RNA 1: B4 RNA 1
RNA 2: B4 RNA 2 with A27U, G28A, A29U, A52U, A53G, G54A
B18: target 2 MT 5'PFS AGC 3'PFS CGG (mixed)
RNA 1: B4 RNA 1
RNA 2: B4 RNA 2 with A29C, A52C, A53G
B19: target 2 MT 5'PFS GAG 3'PFS AGU (mixed)
RNA 1: B4 RNA 1
RNA 2: B4 RNA 2 with A27G, G28A, A29G, A53G, G54U
B20: target 2 MT 5'PFS GAG 3'PFS CGC (mixed)
RNA 1: B4 RNA 1
RNA 2: B4 RNA 2 with A27G, G28A, A29G, A52C, A53G, G54C
B21: target 2 MT 5'PFS GAG 3'PFS AGC (mixed)
RNA 1: B4 RNA 1
RNA 2: B4 RNA 2 with A27G, G28A, A29G, A53G, G54C
B22: target 2 MT 5'PFS AGA 3'PFS AAA (mixed)
RNA 1: B4 RNA 1
RNA 2: B4 RNA 2 with G54A
B23: target 2 MT 5'PFS CAU 3'PFS AGA (mixed)
RNA 1: B4 RNA 1
RNA 2: B4 RNA 2 with A27C, G28A, A29U, A53G, G54A
B24: target 2 MT 5'PFS GAG 3'PFS CGA (mixed)
RNA 1: B4 RNA 1
RNA 2: B4 RNA 2 with A27G, G28A, A29G, A52C, A53G, G54A
B25: target 2 MT 5'PFS UUG 3'PFS CGA (mixed)
RNA 1: B4 RNA 1
RNA 2: B4 RNA 2 with A27U, G28U, A29G, A52C, A53G, G54A
B26: target 2 MT 5'PFS GAG 3'PFS CGU (mixed)
RNA 1: B4 RNA 1
RNA 2: B4 RNA 2 with A27G, G28A, A29G, A52C, A53G, G54U
B27: target 2 MT 5'PFS CGA 3'PFS UUA (mixed)
RNA 1: B4 RNA 1
RNA 2: B4 RNA 2 with A27C, A52U, A53U, G54A
B28: target 2 MT 5'PFS GAG 3'PFS CGG (mixed)
RNA 1: B4 RNA 1
RNA 2: B4 RNA 2 with A27G, G28A, A29G, A52C, A53G
B29: target 2 MT 5'PFS CGA 3'PFS UUU (mixed)
RNA 1: B4 RNA 1
RNA 2: B4 RNA 2 with A27C, A52U, A53U, G54U
B30: target 2 MT 5'PFS CGA 3'PFS CUU (mixed)
RNA 1: B4 RNA 1
RNA 2: B4 RNA 2 with A27C, A52C, A53U, G54U
B31: target 2 MT 5'PFS UGU 3'PFS CAC (mixed)
RNA 1: B4 RNA 1
RNA 2: B4 RNA 2 with A27U, A29U, A52C, G54C
B32: target 2 MT 5'PFS CGA 3'PFS CUA (mixed)
RNA 1: B4 RNA 1
RNA 2: B4 RNA 2 with A27C, A52C, A53U, G54A
B33: target 2 MT 5'PFS CUU 3'PFS ACC (mixed)
RNA 1: B4 RNA 1
RNA 2: B4 RNA 2 with A27C, G28U, A29U, A53C, G54C
B34: target 2 MT 5'PFS CUU 3'PFS ACG (mixed)
RNA 1: B4 RNA 1
RNA 2: B4 RNA 2 with A27C, G28U, A29U, A53C
B35: target 2 MT 5'PFS UAU 3'PFS UGU (mixed)
RNA 1: B4 RNA 1
RNA 2: B4 RNA 2 with A27U, G28A, A29U, A52U, A53G, G54U
B36: target 2 MT 5'PFS UAU 3'PFS UGC (mixed)
RNA 1: B4 RNA 1
RNA 2: B4 RNA 2 with A27U, G28A, A29U, A52U, A53G, G54C
B37: target 2 MT 5'PFS GAG 3'PFS AGA (mixed)
RNA 1: B4 RNA 1
RNA 2: B4 RNA 2 with A27G, G28A, A29G, A53G, G54A
B38: target 2 MT 5'PFS UUC 3'PFS ACA (mixed)
RNA 1: B4 RNA 1
RNA 2: B4 RNA 2 with A27U, G28U, A29C, A53C, G54A

These binders were tested against T1, EsCas13d, nuclease-dead (assay: crRNA (strand 1, pre-loaded); Mg2+; 40 mM Tris-HCl pH 7.5, 150 mM NaCl, 6 mM MgCl2, 1 mM DTT, 0.1% Tween-20, 0.2 mg/ml BSA; 25 C; 10 min per concentration, then washed). Details: tags: His6-TwinStrep-SUMO cleaved; N-terminal SNAP kept (SNAP-Surface 488); label: 3' end held by stalled T7 RNA polymerase.

Row | Binder | Kd
1 | B1 | 86 ± 16 nM
2 | B2 | 10.1 ± 0.8 nM
3 | B3 | 88 ± 13 nM
4 | B4 | 7.1 ± 1.3 nM
5 | B5 | 10.3 ± 1.4 nM
6 | B6 | 15.9 ± 1.5 nM
7 | B7 | 9.6 ± 1.1 nM
8 | B8 | ~16 nM
9 | B9 | 3 ± 0.4 nM
10 | B10 | 6.3 ± 0.9 nM
11 | B11 | 9 ± 0.9 nM
12 | B12 | 4.9 ± 0.6 nM
13 | B13 | 15 ± 5 nM
14 | B14 | 5.5 ± 0.6 nM
15 | B15 | 5.8 ± 1 nM
16 | B16 | 7.5 ± 0.7 nM
17 | B17 | 37 ± 9 nM
18 | B18 | 5.8 ± 1 nM
19 | B19 | 9.1 ± 1.1 nM

Row | Binder | Kd
20 | B20 | 6.4 ± 0.4 nM
21 | B21 | 5.7 ± 0.7 nM
22 | B22 | 4.5 ± 1.2 nM
23 | B23 | 2.8 ± 0.6 nM
24 | B24 | 4.9 ± 0.4 nM
25 | B25 | 11.4 ± 1 nM
26 | B26 | 9.4 ± 0.9 nM
27 | B27 | 9 ± 1.7 nM
28 | B28 | 5.8 ± 0.4 nM
29 | B29 | 9.2 ± 1.7 nM
30 | B30 | 8.3 ± 1.1 nM
31 | B31 | 16 ± 2.5 nM
32 | B32 | 8.3 ± 1.3 nM
33 | B33 | 10.5 ± 2.2 nM
34 | B34 | 4.4 ± 0.5 nM
35 | B35 | 29.1 ± 3.4 nM
36 | B36 | 30 ± 6 nM
37 | B37 | 4.9 ± 0.5 nM
38 | B38 | ~21 nM
